The values that follow come from article doi:10.1101/2023.12.20.572361.

A short description of series [1]: forelimb grip strength test. Particulars: glycan lost; control: WT mice.
The nature of series [2]: EDL isometric tetanic and specific force in vitro. The following applies: glycan lost; control: WT mice.
Series [3] is described as follows: EDL eccentric contraction protocol. The following applies: glycan lost; control: WT mice.
The conditions of series [4]: glycan lost; control: WT mice.

B1: dystroglycan (mDag1): 4X mut. (Pax7-Cre or AAV-CMV-Cre) (protein)
parent chain: MSVDNWLLHPLWGQTFLLLLSVAVAQAHWPSEPSEAVRDWKNQLEASMHSVLSDFQEAVPTVVGIPDGTAVVGRSFRVSIPTDLIASSGEIIKVSAAGKEALPSWLHWDPHSHILEGLPLDTDKGVHYISVSAARLGANGSHVPQTSSVFSIEVYPEDHNEPQSVRAASSDPGEVVPSACAADEPVTVLTVILDADLTKMTPKQRIDLLNRMQSFSEVELHNMKLVPVVNNRLFDMSAFMAGPGNAKKVVENGALLSWKLGCSLNQNSVPDIRGVETPAREGAMSAQLGYPVVGWHIANKKPTLPKRLRRQIHATPTPVTAIGPPTTAIQEPPSRIVPTPTSPAIAPPTETMAPPVRDPVPGKPTVTIRTRGAIIQTPTLGPIQPTRVSEAGTTVPGQIRPTLTIPGYVEPTAVITPPTTTTKKPRVSTPKPATPSTDSSTTTTRRPTKKPRTPRPVPRVTTKAPITRLETASPPTRIRTTTSGVPRGGEPNQRPELKNHIDRVDAWVGTYFEVKIPSDTFYDNEDTTTDKLKLTLKLREQQLVGEKSWVQFNSNSQLMYGLPDSSHVGKHEYFMHATDKGGLSAVDAFEIHVHKRPQGDKAPARFKARLAGDPAPVVNDIHKKIALVKKLAFAFGDRNCSSITLQNITRGSIVVEWTNNTLPLEPCPKEQIIGLSRRIADENGKPRPAFSNALEPDFKALSIAVTGSGSCRHLQFIPVAPPSPGSSAAPATEVPDRDPEKSSEDDVYLHTVIPAVVVAAILLIAGIIAMICYRKKRKGKLTLEDQATFIKKGVPIIFADELDDSKPPPSSSMPLILQEEKAPLPPPEYPNQSMPETTPLNQDTVGEYTPLRDEDPNAPPYQPPPPFTAPMEGKGSRPKNMTPYRSPPPYVPP
B1: in series [1], the “other: grip strength” value is “decreases”. Besides, the “other: muscle contractile force” value in series [2] is “decreases”. Besides, the “other: susceptibility to contraction-induced injury” value in series [3] is “increases”.

B2: dystroglycan (mDag1): Pax7-Cre 4X mutant (protein)
parent chain: MSVDNWLLHPLWGQTFLLLLSVAVAQAHWPSEPSEAVRDWKNQLEASMHSVLSDFQEAVPTVVGIPDGTAVVGRSFRVSIPTDLIASSGEIIKVSAAGKEALPSWLHWDPHSHILEGLPLDTDKGVHYISVSAARLGANGSHVPQTSSVFSIEVYPEDHNEPQSVRAASSDPGEVVPSACAADEPVTVLTVILDADLTKMTPKQRIDLLNRMQSFSEVELHNMKLVPVVNNRLFDMSAFMAGPGNAKKVVENGALLSWKLGCSLNQNSVPDIRGVETPAREGAMSAQLGYPVVGWHIANKKPTLPKRLRRQIHATPTPVTAIGPPTTAIQEPPSRIVPTPTSPAIAPPTETMAPPVRDPVPGKPTVTIRTRGAIIQTPTLGPIQPTRVSEAGTTVPGQIRPTLTIPGYVEPTAVITPPTTTTKKPRVSTPKPATPSTDSSTTTTRRPTKKPRTPRPVPRVTTKAPITRLETASPPTRIRTTTSGVPRGGEPNQRPELKNHIDRVDAWVGTYFEVKIPSDTFYDNEDTTTDKLKLTLKLREQQLVGEKSWVQFNSNSQLMYGLPDSSHVGKHEYFMHATDKGGLSAVDAFEIHVHKRPQGDKAPARFKARLAGDPAPVVNDIHKKIALVKKLAFAFGDRNCSSITLQNITRGSIVVEWTNNTLPLEPCPKEQIIGLSRRIADENGKPRPAFSNALEPDFKALSIAVTGSGSCRHLQFIPVAPPSPGSSAAPATEVPDRDPEKSSEDDVYLHTVIPAVVVAAILLIAGIIAMICYRKKRKGKLTLEDQATFIKKGVPIIFADELDDSKPPPSSSMPLILQEEKAPLPPPEYPNQSMPETTPLNQDTVGEYTPLRDEDPNAPPYQPPPPFTAPMEGKGSRPKNMTPYRSPPPYVPP
For B2, the “other: neuromuscular junction integrity” value in series [4] is given as “decreases”.
